This is an account of results in patent US20090317401A1.

Test in all cases: cell-based or functional assay
The target of assay [1] is human CD160 receptor (human) (UniProt O95971).
Assay [2] deals with HLA-C expressed on K562class I+ cells (human) (UniProt P10321).
Assay [3] addresses CD16 receptor on PB-NK cells (human) (UniProt P08637).
UniProt P08637, sequence (P08637 17-254): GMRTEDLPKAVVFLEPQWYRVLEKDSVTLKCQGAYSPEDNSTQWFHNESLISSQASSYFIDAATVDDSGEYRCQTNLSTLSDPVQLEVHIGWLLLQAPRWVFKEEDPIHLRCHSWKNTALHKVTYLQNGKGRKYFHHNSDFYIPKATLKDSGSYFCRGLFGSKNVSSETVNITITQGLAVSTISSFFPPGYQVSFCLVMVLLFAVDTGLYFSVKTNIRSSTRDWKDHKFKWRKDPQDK

UniProt O95971, sequence (O95971 25-159): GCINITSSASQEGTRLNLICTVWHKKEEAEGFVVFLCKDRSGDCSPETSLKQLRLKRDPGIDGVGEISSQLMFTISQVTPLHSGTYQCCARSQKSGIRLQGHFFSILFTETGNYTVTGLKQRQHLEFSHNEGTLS
UniProt P10321, sequence (P10321 25-366): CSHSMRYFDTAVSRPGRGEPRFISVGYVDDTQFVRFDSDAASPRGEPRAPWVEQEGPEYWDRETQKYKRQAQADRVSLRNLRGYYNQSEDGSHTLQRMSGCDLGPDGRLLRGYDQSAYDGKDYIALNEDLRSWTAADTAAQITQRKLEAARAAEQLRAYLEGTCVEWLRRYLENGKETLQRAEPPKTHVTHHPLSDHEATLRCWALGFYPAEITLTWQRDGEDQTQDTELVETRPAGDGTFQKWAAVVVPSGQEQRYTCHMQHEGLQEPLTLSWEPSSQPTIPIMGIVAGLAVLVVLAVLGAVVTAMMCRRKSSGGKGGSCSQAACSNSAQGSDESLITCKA

“HLA-C expressed on K562class I+ cells (from UniProt P10321 25-366) (ligand)”: in assay [1], the IFN-γ production by PB-NK co-cultured 16 h with K562Class-I+ (Cytometric Bead Array) worked out at 29400 pg/mL, the IFN-γ production by PB-NK co-cultured with K562Class-I+ in the presence of IgG1 isotype control turned out to be 23100 pg/mL, the IFN-γ production by PB-NK co-cultured with K562Class-I+ in the presence of IgG2a isotype control was found to be 16100 pg/mL and the IL-6 production by PB-NK co-cultured 16 h with K562Class-I+ (Cytometric Bead Array) is 620 pg/mL. Further, in assay [1], the IL-6 production by PB-NK co-cultured with K562Class-I+ in the presence of IgG1 isotype control amounted to 414 pg/mL, the IL-6 production by PB-NK co-cultured with K562Class-I+ in the presence of IgG2a isotype control was 478 pg/mL, the TNF-α production by PB-NK co-cultured 16 h with K562Class-I+ (Cytometric Bead Array) was 334 pg/mL and the TNF-α production by PB-NK co-cultured with K562Class-I+ in the presence of IgG1 isotype control turned out to be 200 pg/mL. Besides, in assay [1], the TNF-α production by PB-NK co-cultured with K562Class-I+ in the presence of IgG2a isotype control worked out at 215 pg/mL.

As to “W6/32 anti-HLA mAb (IgG2a; ATCC HB-95) (antibody)”, in assay [2], the IFN-γ production by PB-NK co-cultured with K562Class-I+ in the presence of blocking anti-HLA-C mAb is 1150 pg/mL, the IL-6 production by PB-NK co-cultured with K562Class-I+ in the presence of blocking anti-HLA-C mAb came out at 370 pg/mL and the TNF-α production by PB-NK co-cultured with K562Class-I+ in the presence of blocking anti-HLA-C mAb turned out to be 64 pg/mL.

In the case of “3G8 anti-CD16 mAb (IgG1; Beckman-Coulter) (antibody)”, in assay [3], the IFN-γ production by PB-NK after mAb cross-linking of CD16, against CD160 engagement turned out to be 30 fold less.

In the case of “HLA-Cw5 on K562-HLA-Cw5 transfectants (ligand)”, in assay [1], the IFN-γ production by PB-NK co-cultured 16 h with K562-Cw5 (Cytometric Bead Array) was determined as 20100 pg/mL, the IL-6 production by PB-NK co-cultured 16 h with K562-Cw5 (Cytometric Bead Array) turned out to be 689 pg/mL and the TNF-α production by PB-NK co-cultured 16 h with K562-Cw5 (Cytometric Bead Array) was 389 pg/mL.
